Source: article PMC4012331 (Biochimica et biophysica acta, 2013)

Legend:
[1] = target: T1, flavodoxin (Fld); apo-Fld (Escherichia coli, UniProt P61949); assay: isothermal titration calorimetry; format: binding
T1 sequence (P61949 2-176): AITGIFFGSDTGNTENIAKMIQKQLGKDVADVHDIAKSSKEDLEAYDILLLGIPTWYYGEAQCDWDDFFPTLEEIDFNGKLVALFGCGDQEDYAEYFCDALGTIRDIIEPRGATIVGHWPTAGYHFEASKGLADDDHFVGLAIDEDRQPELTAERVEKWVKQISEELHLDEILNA

[2] = target: pyruvate formate-lyase activating enzyme (PFL-AE), Escherichia coli (Escherichia coli) (UniProt P0A9N6); assay: SPR
Sequence of pyruvate formate-lyase activating enzyme (PFL-AE), Escherichia coli (Escherichia coli) (P0A9N6 2-246): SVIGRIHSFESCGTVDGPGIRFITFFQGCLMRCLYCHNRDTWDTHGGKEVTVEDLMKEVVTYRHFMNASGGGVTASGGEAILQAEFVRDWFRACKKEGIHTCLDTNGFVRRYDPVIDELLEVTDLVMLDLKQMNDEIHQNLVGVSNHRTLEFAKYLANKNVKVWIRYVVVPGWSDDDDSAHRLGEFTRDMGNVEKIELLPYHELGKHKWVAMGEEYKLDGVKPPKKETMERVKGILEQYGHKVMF

[3] = target: NADP+-dependent flavodoxin oxidoreductase (FNR), Escherichia coli (E. coli) (UniProt P28861); assay: SPR
Sequence of NADP+-dependent flavodoxin oxidoreductase (FNR), Escherichia coli (E. coli) (P28861 whole entry): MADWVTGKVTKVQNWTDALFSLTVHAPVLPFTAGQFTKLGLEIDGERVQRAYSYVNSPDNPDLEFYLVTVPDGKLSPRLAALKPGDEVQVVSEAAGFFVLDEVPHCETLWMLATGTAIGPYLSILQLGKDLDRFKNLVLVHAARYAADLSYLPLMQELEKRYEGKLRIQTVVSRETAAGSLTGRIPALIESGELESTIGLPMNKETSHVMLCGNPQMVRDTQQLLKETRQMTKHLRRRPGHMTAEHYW

Row | Molecule | Kd [1] [µM] | Kd [2] [µM] | Kd [3] [µM]
1 | Cc1cc2nc3c(=O)[nH]c(=O)nc-3n(C[C@H](O)[C@H](O)[C@H](O)COP(=O)(O)O)c2cc1C [FMN] | 0.0056 ± 0.0012 |  | 
2 | holo-flavodoxin (Fld with bound FMN cofactor), Escherichia coli (from UniProt P61949 2-176) (natural protein) |  | 23.3 | 3.7
